# Measurements reported in paper PMC10106851, “Wheat yellow mosaic virus NIb targets TaVTC2 to elicit broad‐spectrum pathogen resistance in wheat” (Plant Biotechnology Journal, 2023).
# T1: TaVTC2 (Triticum aestivum, UniProt A0A650C200)
# T1 construct: gene GGP2-D; full-length CDS; recombinant GST fusion (TaVTC2-GST) from E. coli BL21
# T1 sequence (A0A650C200 1-431): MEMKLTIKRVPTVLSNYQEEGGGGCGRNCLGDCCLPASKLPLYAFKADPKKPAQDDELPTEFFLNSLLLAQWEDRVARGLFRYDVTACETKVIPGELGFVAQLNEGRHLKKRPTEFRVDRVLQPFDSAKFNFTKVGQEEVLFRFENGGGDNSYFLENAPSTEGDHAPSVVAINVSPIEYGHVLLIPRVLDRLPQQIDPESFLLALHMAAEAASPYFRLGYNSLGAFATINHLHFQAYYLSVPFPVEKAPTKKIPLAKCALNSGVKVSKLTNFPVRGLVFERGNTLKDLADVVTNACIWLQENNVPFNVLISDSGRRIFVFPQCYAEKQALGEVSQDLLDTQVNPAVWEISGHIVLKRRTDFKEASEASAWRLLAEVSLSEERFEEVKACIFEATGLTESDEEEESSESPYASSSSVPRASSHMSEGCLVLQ
# T2: NIb-His (wheat yellow mosaic virus (WYMV))
# T2 chain: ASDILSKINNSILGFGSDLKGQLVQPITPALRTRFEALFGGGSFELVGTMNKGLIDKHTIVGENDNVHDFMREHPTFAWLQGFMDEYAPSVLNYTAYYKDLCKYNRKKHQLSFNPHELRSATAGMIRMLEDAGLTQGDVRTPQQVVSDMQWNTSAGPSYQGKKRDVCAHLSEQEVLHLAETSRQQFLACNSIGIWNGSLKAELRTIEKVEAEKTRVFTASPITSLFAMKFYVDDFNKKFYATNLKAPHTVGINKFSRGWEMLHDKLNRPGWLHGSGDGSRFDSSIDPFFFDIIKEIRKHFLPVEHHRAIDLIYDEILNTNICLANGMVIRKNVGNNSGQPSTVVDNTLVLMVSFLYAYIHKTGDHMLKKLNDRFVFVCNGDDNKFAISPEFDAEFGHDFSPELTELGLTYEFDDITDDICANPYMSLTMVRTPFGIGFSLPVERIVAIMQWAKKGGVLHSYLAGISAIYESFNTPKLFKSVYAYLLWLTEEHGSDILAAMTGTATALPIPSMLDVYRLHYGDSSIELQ
# Columns and labels:
# [1] = target: T1, TaVTC2; experiment: microscale thermophoresis; type: binding
# [2] = target: TaVTC2-GST (wheat (Triticum aestivum)); experiment: ITC; ITC 200 Micro Calorimeter, 20 °C; 10 mM Tris-HCl, 150 mM sodium chloride, pH 7.5; one-set-of-sites model; which protein was in the syringe is not given
# [3] = substrate: Nc1nc2c(ncn2[C@@H]2O[C@H](COP(=O)(O)OP(=O)(O)O[C@H]3O[C@@H](CO)[C@@H](O)[C@@H](O)[C@@H]3O)[C@@H](O)[C@H]2O)c(=O)[nH]1; experiment: purified protein; type: biochemical, Triticum aestivum; conditions: 5 mM K2HPO4, 2.5 mM MgCl2, 50 mM KCl, 50 mM HEPES pH 6.9, 20 °C
# [4] = target: T2, NIb-His; experiment: ITC
molecule,measurement,setting,value
Nc1nc2c(ncn2[C@@H]2O[C@H](COP(=O)(O)OP(=O)(O)O[C@H]3O[C@@H](CO)[C@@H](O)[C@@H](O)[C@@H]3O)[C@@H](O)[C@H]2O)c(=O)[nH]1 [GDP-L-galactose],Kd,[1],2.7 µM
NIb-His (natural protein),Ka,[2],167000 M⁻¹
TaVTC2-GST (enzyme) MEMKLTIKRVPTVLSNYQEEGGGGCGRNCLGDCCLPASKLPLYAFKADPKKPAQDDELPTEFFLNSLLLAQWEDRVARGLFRYDVTACETKVIPGELGFVAQLNEGRHLKKRPTEFRVDRVLQPFDSAKFNFTKVGQEEVLFRFENGGGDNSYFLENAPSTEGDHAPSVVAINVSPIEYGHVLLIPRVLDRLPQQIDPESFLLALHMAAEAASPYFRLGYNSLGAFATINHLHFQAYYLSVPFPVEKAPTKKIPLAKCALNSGVKVSKLTNFPVRGLVFERGNTLKDLADVVTNACIWLQENNVPFNVLISDSGRRIFVFPQCYAEKQALGEVSQDLLDTQVNPAVWEISGHIVLKRRTDFKEASEASAWRLLAEVSLSEERFEEVKACIFEATGLTESDEEEESSESPYASSSSVPRASSHMSEGCLVLQ,Km,[3],78 ± 22.9 µM
same,Kd,[4],5.98 µM
